# Measurements published in article PMC6291843.
# Tests used:
# HNP-(R14,24orn) (human) = experiment: AUC
# [1] = molecular target: human neutrophil peptide-1 (HNP-1) (human); experiment: AUC
"population of oligomer (HNP-(R14,24orn) (human))",population of oligomer [1],Substance
8%,,"HNP-(R14,24orn) (peptide)"
,8%,human neutrophil peptide-1 (HNP-1)
